This note sets out measurements from patent publication US20260248932A1, “CATIONIC AMPHIPHILIC POLYPEPTIDE FOR DELIVERING RNA AND METHOD FOR PREPARING THE SAME” (INHA UNIVERSITY RESEARCH AND BUSINESS FOUNDATION, priority 2023, published 2026).

This series is described as follows: Critical association concentration (CAC) by static light scattering. The class given is physicochemical. Conditions: 10 mM HEPES buffer (pH 7.3), 0.001~4 mg/ml. The method, then: For the light scattered intensity of the polypeptide, the static light scattering was measured at 25° C. and a detection angle of 173° using Zetasizer Pro (Malvern Panalytical, Worcestershire, UK) equipped with a He—Ne laser (2=633 nm). Samples in 10 mM HEPES buffer (pH 7.3) were analyzed using a low-volume quartz cuvette (ZEN2112, Malvern Panalytic).
The critical association concentration (hereinafter referred to as CAC) of peptides measured by static light scattering was analyzed. […] Homopolypeptide (DDDDDDDD) used as the control group was well dissolved in buffer (pH 7.3), but no CAC appeared up to treatment concentration of 4 mg/mL.

As to “DDDDDDDD [octameric homopolypeptide of L-Asp(DET) units used as the control group]”, the “critical association concentration (CAC)” value was greater than 4 mg/mL.
